Experimental findings from the supplement of paper PMC11780869 are described below.

In the data set the test system is Bacillus subtilis. Put plainly: cleaved RNA product abundance (RNA/gDNA barcode ratio) relative to median wild-type variant (ratio to wild type); higher = more accumulation of the downstream cleavage product. Particulars: experiment (reporter, strain, medium): exp 8a: truncated aprE reporter, strain BJT201 with 2% xylose (RNase J1 expressed); cleavage site: glnRA (positions -5 to +31 mutated). Summed up:
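The B. subtilis chromosome carried reporter mRNAs, truncated aprE or tetM, containing barcoded RNase Y cleavage-site windows mutagenized using oligos with a 9% error rate. After growth in LB at 37°C from OD600 0.0003 to 0.3, cleaved RNA was gel-selected, reverse transcribed and barcode-sequenced next to genomic DNA barcodes, with UMI collapsing. Each construct's RNA:gDNA barcode ratio was scaled to the median construct with the unmutated site. That scaled ratio is reported as cleaved product abundance.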
On to “CGACATGTCCCGCTTCTTTCATTATTCCATTAGCAATTGTTTTGCTATATACATTTACCTTTTAAGAGGAGGAAT”, for which the “cleaved RNA product abundance” value is 1.33. With “CGACATGTCCCGCTTCTTTCATTATTCCCTTAGCAACTGTTTTGCTATATACATTTACCTTTTAAGAGGAGGAAT”, the “cleaved RNA product abundance” value is 0.221. On to “CGACATGTCCCGCTTCTTTCATTATTCCGATAGCAACTATTTTGCTATATACATTTACCTTTTAAGAGGAGGAAT”, for which the “cleaved RNA product abundance” value worked out at 1.85. For “CGACATGTCCCGCTTCTTTCATTATTCCGATAGCAACTGTTTTGCTATATACATTTACCTTTTAAGAGGAGGAAT” the value was 0.898. Take “CGACATGTCCCGCTTCTTTCATTATTCCGATATCAATTGTTTCGCTATATACATTTACCTTTTAAGAGGAGGAAT”: the “cleaved RNA product abundance” value is 0.147. The value for “CGACATGTCCCGCTTCTTTCATTATTCCGTAAGCAACTGTTTTGCTATATACATTTACCTTTTAAGAGGAGGAAT” was 0.594.

Consider “CGACATGTCCCGCTTCTTTCATTATTCCGTAAGCGACTGTTTTGATATATACATTTACCTTTTAAGAGGGGGAAT”, for which the “cleaved RNA product abundance” value came out at 0.359. As to “CGACATGTCCCGCTTCTTTCATTATTCCGTCAGCAACTGTTTTGCTATATACATTTACCTTTTAAGAGGAGGAAT”, the “cleaved RNA product abundance” value is 0.502. Regarding “CGACATGTCCCGCTTCTTTCATTATTCCGTGAGCAACTGTTTTGATATATACATTTACCTTTTAAGAGGAGGAAT”, the “cleaved RNA product abundance” value stood at 0.52. Turning to “CGACATGTCCCGCTTCTTTCATTATTCCGTGAGCAACTGTTTTGCTATATACATTTACCTTTTAAGAGGAGGAAT”, the “cleaved RNA product abundance” value worked out at 0.62. For “CGACATGTCCCGCTTCTTTCATTATTCCGTGAGCAACTGTTTTTCTATATACATTTACCTTTTAAGAGGAGGAAT” the value was 0.407; for “CGACATGTCCCGCTTCTTTCATTATTCCGTTAACAACAGTTTTGCTATATACATTTACCTTTTAAGAGGAGGAAT”, 0.271.

For the sequence “CGACATGTCCCGCTTCTTTCATTATTCCGTTAACAACTATTTTGCTATATACATTTACCTTTTAAGAGGAGGAAT”, the “cleaved RNA product abundance” value was determined as 0.283. As to “CGACATGTCCCGCTTCTTTCATTATTCCGTTAACAACTGTTTTACTATATACATTTACCTTTTAAGAGGAGGAAT”, the “cleaved RNA product abundance” value worked out at 0.257. The value for “CGACATGTCCCGCTTCTTTCATTATTCCGTTAACAACTGTTTTGCTATATACATATACCTTTTAAGAGGAGGAAT” was 0.239; that for “CGACATGTCCCGCTTCTTTCATTATTCCGTTAACAACTGTTTTGCTATATACATTTACCTTTTAAGAGGAGGAAT” was 0.312; that for “CGACATGTCCCGCTTCTTTCATTATTCCGTTAACAACTGTTTTGCTATATACATTTATCTTTTAAGAGGAGGAAT” was 0.27. The value for “CGACATGTCCCGCTTCTTTCATTATTCCGTTAACAACTGTTTTGCTATATACTTTTACCTTTTAAGAGGAGGAAT” was 0.273; that for “CGACATGTCCCGCTTCTTTCATTATTCCGTTAACAACTGTTTTGCTATATTCATTTACCTTTTAAGAGGAGGAAT” was 0.155. As to “CGACATGTCCCGCTTCTTTCATTATTCCGTTACCAAATGTTTTGCTATATACATTTACCTTTTAAGAGGAGGAAT”, the “cleaved RNA product abundance” value amounted to 0.265. The value for “CGACATGTCCCGCTTCTTTCATTATTCCGTTACCAACTGTTTTGCTATATACATTTACCTTTTAAGAGGAGGAAT” was 0.289; that for “CGACATGTCCCGCTTCTTTCATTATTCCGTTAGAAACTGTTTTGCTATATACACTTACCTTTTAAGAGGAGGAAT” was 0.302.

Turning to “CGACATGTCCCGCTTCTTTCATTATTCCGTTAGAAACTGTTTTGCTATATACATTTACCTTTTAAGAGGAGGAAT”, the “cleaved RNA product abundance” value was 0.309. In the case of “CGACATGTCCCGCTTCTTTCATTATTCCGTTAGCAAATGTTGTGCTATATACATTTACCTTTTAAGAGGAGGAAT”, the “cleaved RNA product abundance” value came to 0.444. As for “CGACATGTCCCGCTTCTTTCATTATTCCGTTAGCAAATGTTTTGCTATATACATTTACCTTTTAAGAGGAGGAAT”, the “cleaved RNA product abundance” value amounted to 1.75.
